US9029508 (dated 2015)
Blank lines part the entries; values can stand above or below the binder they belong to.

Molecular target: DLL4 (human, UniProt Q9NR61)
Assay: ELISA

Sequence of DLL4 (Q9NR61 27-524): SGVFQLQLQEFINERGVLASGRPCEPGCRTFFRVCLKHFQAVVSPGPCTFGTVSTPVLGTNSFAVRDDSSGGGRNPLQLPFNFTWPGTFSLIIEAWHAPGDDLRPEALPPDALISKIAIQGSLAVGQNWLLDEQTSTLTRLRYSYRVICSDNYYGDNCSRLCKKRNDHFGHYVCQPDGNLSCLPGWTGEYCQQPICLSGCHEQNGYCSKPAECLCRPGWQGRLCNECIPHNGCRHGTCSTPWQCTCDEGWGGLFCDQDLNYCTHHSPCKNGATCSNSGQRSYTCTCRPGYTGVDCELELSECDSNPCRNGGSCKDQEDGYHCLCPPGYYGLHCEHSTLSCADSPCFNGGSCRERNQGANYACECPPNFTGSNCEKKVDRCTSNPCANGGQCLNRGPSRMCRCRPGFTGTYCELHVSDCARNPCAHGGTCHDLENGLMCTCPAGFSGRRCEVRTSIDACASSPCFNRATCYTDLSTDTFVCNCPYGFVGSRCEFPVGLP

B7: DVD465 DLL4 arm (antibody)
chain 1: EVQLVESGGGLVQPGGSLRLSCAASGFTFTDNWISWVRQAPGKGLEWVGYISPNSGFTYYADSVKGRFTISADTSKNTAYLQMNSLRAEDTAVYYCARDNFGGYFDYWGQGTLVTVSS
chain 2: DIQMTQSPSSLSASVGDRVTITCRASQDVSTAVAWYQQKPGKAPKLLIYSASFLYSGVPSRFSGSGSGTDFTLTISSLQPEDFATTYYCQQSYTGTVTFGQGTKVEIKR
modifications: DVD-Ig outer
EC50: 0.57 nM

B8: DVD471 DLL4 arm (antibody)
chain 1: B7 chain 1
chain 2: B7 chain 2
modifications: DVD-Ig outer
EC50: 0.89 nM

B9: DVD483 DLL4 arm (antibody)
chain 1: B7 chain 1
chain 2: B7 chain 2
modifications: DVD-Ig outer
EC50: 0.63 nM

B10: DVD466 DLL4 arm (antibody)
chain 1: B7 chain 1
chain 2: B7 chain 2
modifications: DVD-Ig inner
EC50: 19.8 nM

B11: DVD469 DLL4 arm (antibody)
chain 1: B7 chain 1
chain 2: B7 chain 2
modifications: DVD-Ig outer
EC50: 2.78 nM

B12: DVD480 DLL4 arm (antibody)
chain 1: B7 chain 1
chain 2: B7 chain 2
modifications: DVD-Ig inner
EC50: 0.6 nM

B14: DVD525 DLL4 arm (antibody, V domains shown)
VH: EVQLQQSGPELEKPGASVKISCKASGYSFTGYNMNWVKQSNGKSLEWIGNIDPYFGGTNYNQKFKGKATLTVDKSSSTAYMQLKSLTSEDSAVYYCARNYDYDGGCFDYWGQGTTLTVSS
VL: QAVVTQESALTTSPGETVTLTCRSSTGAVTTSNYANWVQEKPDHLFTGLIGGTNNRAPGVPARFSGSLIGDKAALTITGAQTEDEAIYFCALWYSNHWVFGGGTKLTVLG
modifications: DVD-Ig outer
EC50: 1 nM

B17: DVD526 DLL4 arm (antibody, V domains shown)
VH: B14 VH
VL: B14 VL
modifications: DVD-Ig inner
EC50: 1.57 nM

B18: DVD532 DLL4 arm (antibody, V domains shown)
VH: B14 VH
VL: B14 VL
modifications: DVD-Ig inner
EC50: 1.43 nM

B20: DVD456 DLL4 arm (antibody, V domains shown)
VH: QVQLVQSGAEVKKPGASVKISCKASGYSFTAYYIHWVKQAPGQGLEWIGYISSYNGATNYNQKFKGRVTFTTDTSTSTAYMELRSLRSDDTAVYYCARDYDYDVGMDYWGQGTLVTVSS
VL: DIVMTQSPDSLAVSLGERATISCRASESVDNYGISFMKWFQQKPGQPPKLLIYAASNQGSGVPDRFSGSGSGTDFTLTISSLQAEDVAVYYCQQSKEVPWTFGGGTKVEIKR
modifications: DVD-Ig inner
EC50: 2.48 nM

B21: DVD454 DLL4 arm (antibody, V domains shown)
VH: B20 VH
VL: B20 VL
modifications: DVD-Ig inner
EC50: 1.01 nM

B22: DVD442 DLL4 arm (antibody, V domains shown)
VH: B20 VH
VL: B20 VL
modifications: DVD-Ig inner
EC50: 10.6 nM

B23: DVD462 DLL4 arm (antibody, V domains shown)
VH: B20 VH
VL: B20 VL
modifications: DVD-Ig inner
EC50: 7.99 nM

Stronger by EC50, values ahead:

EC50: 0.06 nM
B1: DVD493 DLL4 arm (antibody, V domains shown)
VH: EVQLQQSGPELVKPGASVKMSCKASGYTFTSYVINWVKQKPGQGLEWIGLINPYNDGTKYNEKFKVKATLTSDKSSSTAYMELSSLTSEDSAVYYCASYYYGSRYYFDYWGQGTTLTVSS
VL: DIQMTQSSSYLSVSLGGRVTITCKASDHINNWLAWYQQKPGNAPRLLISGATSLETGVPSRFSGSGSGKDYTLSITSLQTEDVATYYCQQYWSIPLTFGAGTKLELKR
modifications: DVD-Ig outer

EC50: 0.45 nM
B2: DVD498 DLL4 arm (antibody, V domains shown)
VH: B1 VH
VL: B1 VL
modifications: DVD-Ig inner

EC50: 0.53 nM
B3: DVD504 DLL4 arm (antibody, V domains shown)
VH: B1 VH
VL: B1 VL
modifications: DVD-Ig inner

EC50: 0.42 nM
B4: DVD510 DLL4 arm (antibody, V domains shown)
VH: B1 VH
VL: B1 VL
modifications: DVD-Ig inner

EC50: 0.09 nM
B5: DVD505 DLL4 arm (antibody, V domains shown)
VH: B1 VH
VL: B1 VL
modifications: DVD-Ig outer

EC50: 0.39 nM
B6: DVD491 DLL4 arm (antibody, V domains shown)
VH: B1 VH
VL: B1 VL
modifications: DVD-Ig outer

EC50: 0.09 nM
B13: DVD523 DLL4 arm (antibody, V domains shown)
VH: B14 VH
VL: B14 VL
modifications: DVD-Ig outer

EC50: 0.25 nM
B15: DVD533 DLL4 arm (antibody, V domains shown)
VH: B14 VH
VL: B14 VL
modifications: DVD-Ig outer

EC50: 0.1 nM
B16: DVD511 DLL4 arm (antibody, V domains shown)
VH: B14 VH
VL: B14 VL
modifications: DVD-Ig outer

EC50: 0.36 nM
B19: DVD449 DLL4 arm (antibody, V domains shown)
VH: B20 VH
VL: B20 VL
modifications: DVD-Ig outer

EC50: 0.04 nM
B24: DVD441 DLL4 arm (antibody, V domains shown)
VH: B20 VH
VL: B20 VL
modifications: DVD-Ig outer
